Results on 22 molecules are retold here after patent publication US20060140929A1 (Merck KGaA, published 2006).

Sequences and labels used below:
B1: hirudin mutein M 21 (I29E L30R) (other)
chain: VVYTDCTESGQNLCLCEGSVVCGQGNKCERGSDGEKNQCVTGEGTPKPESHNDGDFEEIPEEYLQ
B2: hirudin mutein M 28 (I29S L30K) (other)
chain: B1 chain with E29S, R30K
B3: hirudin mutein M 2 (I29R L30H) (other)
chain: B1 chain with E29R, R30H
B4: hirudin mutein M 44 (V21H) (other)
chain: B1 chain with V21H, E29I, R30L
B5: hirudin mutein M 42 (V21A) (other)
chain: B1 chain with V21A, E29I, R30L
B6: hirudin mutein M 29 (I29S L30Q) (other)
chain: B1 chain with E29S, R30Q
B7: hirudin mutein M 43 (V21G) (other)
chain: B1 chain with V21G, E29I, R30L
B8: hirudin mutein M 25 (I29R L30R) (other)
chain: B1 chain with E29R
B9: hirudin mutein M 45 (V21K) (other)
chain: B1 chain with V21K, E29I, R30L
B10: hirudin mutein M 24 (I29R L30Q) (other)
chain: B1 chain with E29R, R30Q
B11: hirudin mutein M 35 (I29T L30R) (other)
chain: B1 chain with E29T
B12: hirudin mutein M 33 (I29T L30K) (other)
chain: B1 chain with E29T, R30K
B13: hirudin mutein M 22 (I29E L30T) (other)
chain: B1 chain with R30T
B14: hirudin mutein M 23 (I29R L30K) (other)
chain: B1 chain with E29R, R30K
B15: hirudin mutein M 11 (I29R L30R V40T) (other)
chain: B1 chain with E29R, V40T
B16: hirudin mutein M 27 (I29S L30A) (other)
chain: B1 chain with E29S, R30A
B17: hirudin mutein M 31 (I29S L30T) (other)
chain: B1 chain with E29S, R30T
B18: hirudin mutein M 30 (I29S L30R) (other)
chain: B1 chain with E29S
B19: hirudin mutein M 36 (I29T L30T) (other)
chain: B1 chain with E29T, R30T
B20: hirudin mutein M 26 (I29R L30T) (other)
chain: B1 chain with E29R, R30T
B21: hirudin mutein M 32 (I29T L30A) (other)
chain: B1 chain with E29T, R30A
B22: hirudin mutein M 34 (I29T L30Q) (other)
chain: B1 chain with E29T, R30Q

Where a chain is given by its changes, count along the chain named. Numbers in names are those of the source.

In the assay the target is thrombin. The assay can be described thus: cell-based or functional assay.
For the molecule B1, the “Relative Activity (ratio of variant IC50/WT IC50), chromogenic thrombin inhibition assay” value amounted to 1.21 ratio.

For the molecule B2, the “Relative Activity (ratio of variant IC50/WT IC50), chromogenic thrombin inhibition assay” value amounted to 1.5 ratio.

B3: the “Relative Activity (ratio of variant IC50/WT IC50), chromogenic thrombin inhibition assay” value worked out at 1.2 ratio.

Take B4: the “Relative Activity (ratio of variant IC50/WT IC50), chromogenic thrombin inhibition assay” value is 0.74 ratio.

On to B5, for which the “Relative Activity (ratio of variant IC50/WT IC50), chromogenic thrombin inhibition assay” value worked out at 0.93 ratio.

As to B6, the “Relative Activity (ratio of variant IC50/WT IC50), chromogenic thrombin inhibition assay” value amounted to 2 ratio.

Take B7: the “Relative Activity (ratio of variant IC50/WT IC50), chromogenic thrombin inhibition assay” value was 1 ratio.

Take B8: the “Relative Activity (ratio of variant IC50/WT IC50), chromogenic thrombin inhibition assay” value amounted to 1 ratio.

For the molecule B9, the “Relative Activity (ratio of variant IC50/WT IC50), chromogenic thrombin inhibition assay” value worked out at 0.9 ratio.

For the molecule B10, the “Relative Activity (ratio of variant IC50/WT IC50), chromogenic thrombin inhibition assay” value turned out to be 1 ratio.

As to B11, the “Relative Activity (ratio of variant IC50/WT IC50), chromogenic thrombin inhibition assay” value turned out to be 2.3 ratio.

As to B12, the “Relative Activity (ratio of variant IC50/WT IC50), chromogenic thrombin inhibition assay” value is 1.6 ratio.

As to B13, the “Relative Activity (ratio of variant IC50/WT IC50), chromogenic thrombin inhibition assay” value was found to be 1.8 ratio.

As for B14, the “Relative Activity (ratio of variant IC50/WT IC50), chromogenic thrombin inhibition assay” value came out at 0.93 ratio.

On to B15, for which the “Relative Activity (ratio of variant IC50/WT IC50), chromogenic thrombin inhibition assay” value was determined as 0.7 ratio.

Regarding B16, the “Relative Activity (ratio of variant IC50/WT IC50), chromogenic thrombin inhibition assay” value was 1.34 ratio.

Regarding B17, the “Relative Activity (ratio of variant IC50/WT IC50), chromogenic thrombin inhibition assay” value was found to be 1.1 ratio.

For B18, the “Relative Activity (ratio of variant IC50/WT IC50), chromogenic thrombin inhibition assay” value came out at 2.5 ratio.

Regarding B19, the “Relative Activity (ratio of variant IC50/WT IC50), chromogenic thrombin inhibition assay” value worked out at 1.8 ratio.

On to B20, for which the “Relative Activity (ratio of variant IC50/WT IC50), chromogenic thrombin inhibition assay” value stood at 1 ratio.

Regarding B21, the “Relative Activity (ratio of variant IC50/WT IC50), chromogenic thrombin inhibition assay” value was 1.67 ratio.

B22: the “Relative Activity (ratio of variant IC50/WT IC50), chromogenic thrombin inhibition assay” value came out at 2.4 ratio.
